This is an account of results in patent publication US20240092919A1 (Ablynx, published 2024).

A value given as a limit tells only on which side of the number the result lay.

Assay [1] addresses T1, Cynomolgus TCR(AEA41865/AEA41866)-zipper protein (cynomolgus monkey).
T1 construct: also called cyTCR-zipper protein; cynoTCR zipper
T1 TCR alpha: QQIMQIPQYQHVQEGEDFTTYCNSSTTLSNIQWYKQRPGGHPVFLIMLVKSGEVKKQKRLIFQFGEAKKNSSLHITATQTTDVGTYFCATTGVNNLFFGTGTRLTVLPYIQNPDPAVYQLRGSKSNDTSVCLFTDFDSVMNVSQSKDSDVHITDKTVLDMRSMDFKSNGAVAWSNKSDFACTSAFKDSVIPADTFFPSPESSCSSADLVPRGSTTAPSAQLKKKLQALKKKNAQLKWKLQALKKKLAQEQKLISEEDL
T1 TCR beta: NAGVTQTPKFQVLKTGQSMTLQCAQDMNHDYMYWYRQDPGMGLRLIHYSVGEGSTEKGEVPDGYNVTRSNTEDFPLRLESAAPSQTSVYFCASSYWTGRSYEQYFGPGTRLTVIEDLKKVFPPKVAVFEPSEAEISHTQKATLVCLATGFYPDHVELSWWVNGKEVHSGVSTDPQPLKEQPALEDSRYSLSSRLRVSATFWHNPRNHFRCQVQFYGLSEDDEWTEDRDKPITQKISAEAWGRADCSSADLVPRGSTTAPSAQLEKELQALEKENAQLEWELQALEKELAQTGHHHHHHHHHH
In words: SPR, ProteOn XPR36, 25 C, immobilised cyTCR-zipper. (In general: In SPR one partner is held on a chip, and binding of the other changes the refractive index at the surface.)

Assay [2] concerns the target Cynomolgus T cell receptor on cynomolgus primary T cells (cynomolgus monkey). As to the kind of experiment: cell-based or functional assay.
Assay [3] has as its target T2, Human T cell receptor on human primary T cells (human, UniProt P01848 1-140; P01850 1-176).
T2 TCR alpha (looked up): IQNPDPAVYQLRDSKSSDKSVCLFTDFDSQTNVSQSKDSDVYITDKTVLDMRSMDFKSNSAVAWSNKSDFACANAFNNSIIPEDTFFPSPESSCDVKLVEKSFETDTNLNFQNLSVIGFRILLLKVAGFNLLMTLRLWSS
T2 TCR beta (looked up): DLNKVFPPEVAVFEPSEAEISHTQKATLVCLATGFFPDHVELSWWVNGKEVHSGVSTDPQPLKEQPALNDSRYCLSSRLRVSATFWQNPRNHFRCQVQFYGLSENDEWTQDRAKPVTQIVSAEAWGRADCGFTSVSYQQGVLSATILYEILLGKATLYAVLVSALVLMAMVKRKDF
In words: cell-based or functional assay.

The target of assay [4] is human CD123 on cells (human, UniProt P26951 19-378). As to the kind of experiment: cell-based or functional assay.
The target of assay [5] is human CD33 on cells (human, UniProt P20138 18-364). In words: cell-based or functional assay.
Target sequence in this assay (P20138 18-364): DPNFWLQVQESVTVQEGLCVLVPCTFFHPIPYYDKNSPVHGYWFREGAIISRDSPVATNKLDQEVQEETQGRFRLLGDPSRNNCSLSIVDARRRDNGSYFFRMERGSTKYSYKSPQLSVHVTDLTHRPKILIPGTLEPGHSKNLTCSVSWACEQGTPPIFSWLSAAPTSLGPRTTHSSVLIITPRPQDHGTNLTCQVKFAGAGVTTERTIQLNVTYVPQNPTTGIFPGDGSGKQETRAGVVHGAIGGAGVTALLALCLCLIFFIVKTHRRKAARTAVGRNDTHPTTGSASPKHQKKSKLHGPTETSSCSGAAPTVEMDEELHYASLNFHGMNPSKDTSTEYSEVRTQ
The target of assay [6] is T3, cynomolgus serum albumin (cynomolgus monkey, UniProt A2V9Z4 25-608).
T3 construct: also called CSA
T3 sequence (A2V9Z4 25-608 limits assumed): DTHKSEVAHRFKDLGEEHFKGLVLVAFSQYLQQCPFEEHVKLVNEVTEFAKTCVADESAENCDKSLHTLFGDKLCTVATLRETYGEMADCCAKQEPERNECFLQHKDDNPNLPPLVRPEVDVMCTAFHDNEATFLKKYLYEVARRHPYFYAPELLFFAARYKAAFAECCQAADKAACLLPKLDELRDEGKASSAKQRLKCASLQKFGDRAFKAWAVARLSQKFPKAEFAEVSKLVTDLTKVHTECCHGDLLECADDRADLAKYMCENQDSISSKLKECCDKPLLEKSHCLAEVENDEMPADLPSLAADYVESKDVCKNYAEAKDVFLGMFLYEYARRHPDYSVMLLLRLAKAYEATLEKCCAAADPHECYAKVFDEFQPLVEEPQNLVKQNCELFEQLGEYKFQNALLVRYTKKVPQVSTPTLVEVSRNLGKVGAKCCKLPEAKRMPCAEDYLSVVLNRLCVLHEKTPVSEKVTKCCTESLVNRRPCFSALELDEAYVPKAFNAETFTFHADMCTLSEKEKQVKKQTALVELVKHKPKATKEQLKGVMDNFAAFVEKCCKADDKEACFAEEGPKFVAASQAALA
In words: SPR (ProteOn XPR36, 37°C), albumin immobilised.

Assay [7] has as its target cynomolgus TCR on primary cynomolgus T cells (cynomolgus). As to the kind of experiment: cell-based or functional assay.
Assay [8] addresses T4, cynomolgus TCR on primary cynomolgus T cells (cynomolgus).
T4 construct: whole, on cells; also called cyno TCRαβ
As to the kind of experiment: flow cytometry competition on primary cynomolgus T cells; competitor FLAG3His6 tagged monovalent TCR ISVD; global (weighted) IC50, n = 7. (In general: In flow cytometry, cells or beads pass a laser one at a time.)

The target of assay [9] is T5, human TCR on primary human T cells (human, UniProt P01848 1-140; P01850 1-176).
T5 TCR alpha (looked up): T2 TCR alpha (looked up)
T5 TCR beta (looked up): T2 TCR beta (looked up)
In words: cell-based or functional assay.

Assay [10] addresses T6, human CD123 on cells (human, UniProt P26951 19-378).
T6 construct: also called CHO human CD123; CHO hu CD123
As to the kind of experiment: flow cytometry on CHO Flp-In huCD123 cells; by paragraph 678 with 30 uM HSA, anti-VHH mAb ABH0077 + APC goat anti-mouse; MFI (mean APC) [panel CHO Flp-In huCD123 cells].

The next assay addresses T7, cyCD33L-Fc (cynomolgus).
T7 construct: also called Cynomolgus CD33L-Fc
As to the kind of experiment: SPR, ProteOn XPR36, 37 C; CD33L-Fc captured on anti-huIgG (Fc).

A further assay addresses T8, huCD33L-Fc (human, UniProt P20138 18-259).
T8 construct: also called Human CD33L-Fc; not shown: Fc part, not described (captured by anti-huIgG (Fc))
The description is as above.

Assay [11] deals with T9, human CD33 on cells (human, UniProt P20138 18-364). In words: cell-based or functional assay. This is another data set of the same source.
T9 sequence (P20138 18-364): as the sequence (P20138 18-364) above
The target in assay [12] is T6, human CD123 on cells. In words: cell-based or functional assay. The source holds these as a separate data set.
The next assay concerns the target cynomolgus CD33 on cells (cynomolgus). As to the kind of experiment: cell-based or functional assay.
The target of assay [13] is cynomolgus CD123 on cells (cynomolgus). As to the kind of experiment: cell-based or functional assay.
In the next assay the target is T10, mouse serum albumin (mouse, UniProt P07724 25-608).
T10 construct: also called MSA
T10 sequence (P07724 25-608 limits assumed): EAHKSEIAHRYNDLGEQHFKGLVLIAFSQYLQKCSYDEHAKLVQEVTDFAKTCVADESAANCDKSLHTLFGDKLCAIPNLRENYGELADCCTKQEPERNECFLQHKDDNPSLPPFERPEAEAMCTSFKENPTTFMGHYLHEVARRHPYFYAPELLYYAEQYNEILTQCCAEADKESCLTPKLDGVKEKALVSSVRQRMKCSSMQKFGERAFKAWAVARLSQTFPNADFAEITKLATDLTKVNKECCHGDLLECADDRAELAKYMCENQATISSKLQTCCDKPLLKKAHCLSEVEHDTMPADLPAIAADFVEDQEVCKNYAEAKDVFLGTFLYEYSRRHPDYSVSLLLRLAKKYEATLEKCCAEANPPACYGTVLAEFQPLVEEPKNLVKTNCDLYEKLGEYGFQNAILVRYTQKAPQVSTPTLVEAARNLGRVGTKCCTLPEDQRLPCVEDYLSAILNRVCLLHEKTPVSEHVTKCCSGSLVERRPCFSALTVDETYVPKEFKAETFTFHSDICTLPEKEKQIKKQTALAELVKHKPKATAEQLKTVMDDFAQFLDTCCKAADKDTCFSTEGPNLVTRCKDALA
As to the kind of experiment: SPR, ProteOn XPR36, 37 C; albumin immobilised by amine coupling.

Assay [14] deals with T11, cynomolgus serum albumin (cynomolgus).
T11 construct: also called CSA
T11 sequence (A2V9Z4 25-608): as the sequence (A2V9Z4 25-608 limits assumed) above
The assay is described as above.

For another assay, the target named is T12, human serum albumin (human, UniProt P02768 25-609).
T12 construct: also called HSA
The assay is described as above.

The target in assay [15] is T5, human TCR on primary human T cells. In words: flow cytometry competition on primary human T cells; competitor FLAG3His6 tagged monovalent TCR ISVD; global (weighted) IC50, n = 4.
Assay [16] deals with T13, Cynomolgus TCR(AEA41865/AEA41866)-zipper protein (cynomolgus).
T13 construct: also called cyTCR-zipper; cyTCR(AEA41865)-zipper
T13 TCR alpha: T1 TCR alpha
T13 TCR beta: T1 TCR beta
As to the kind of experiment: SPR, ProteOn XPR36, 37 C; TCR-zipper coated on GLC chip.

In assay [17] the target is T9, human CD33 on cells. As to the kind of experiment: flow cytometry on CHO Flp-In huCD33-long cells; by paragraph 678 with 30 uM HSA, anti-VHH mAb ABH0077 + APC goat anti-mouse; MFI (mean APC) [panel CHO Flp-In huCD33-long cells].
Another assay concerns the target T14, huCD123-Fc (human, UniProt P26951 19-305).
T14 construct: also called Human CD123-Fc; not shown: Fc part, not described (captured by anti-huIgG (Fc))
T14 sequence: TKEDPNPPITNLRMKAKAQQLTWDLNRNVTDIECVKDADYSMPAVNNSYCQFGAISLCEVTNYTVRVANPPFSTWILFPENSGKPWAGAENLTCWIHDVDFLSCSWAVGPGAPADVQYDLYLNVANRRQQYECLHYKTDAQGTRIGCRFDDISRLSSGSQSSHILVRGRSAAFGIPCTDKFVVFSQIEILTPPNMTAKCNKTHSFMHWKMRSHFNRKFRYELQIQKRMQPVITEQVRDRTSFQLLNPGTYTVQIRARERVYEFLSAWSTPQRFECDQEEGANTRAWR
As to the kind of experiment: SPR, ProteOn XPR36, 37 C; CD123-Fc captured on anti-huIgG (Fc).

A further assay addresses T15, cyCD123-Fc (cynomolgus).
T15 construct: also called Cynomolgus CD123-Fc
Described as above.

T8 sequence (P20138 18-259 limits assumed): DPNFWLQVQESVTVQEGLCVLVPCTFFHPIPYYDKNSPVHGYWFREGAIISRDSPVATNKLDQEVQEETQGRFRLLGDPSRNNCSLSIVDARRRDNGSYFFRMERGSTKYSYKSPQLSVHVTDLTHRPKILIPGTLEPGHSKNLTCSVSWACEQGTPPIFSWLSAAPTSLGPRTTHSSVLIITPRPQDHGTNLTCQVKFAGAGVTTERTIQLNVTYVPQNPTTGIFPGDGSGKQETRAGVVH

B1: T017000637 (bispecific antibody)
chain: DVQLVESGGGLVQAGGSLRLSCAASGITSKINDMGWYRQTPGNYREWVASITATGTTNYRDSVKGRFTISRDNAKSTVYLQMNSLKPEDTTVYYCNTFPPISNFWGQGTLVTVSSGGGGSGGGGSGGGGSGGGGSGGGGSGGGGSGGGGSEVQLVESGGGVVQPGGSLRLSCVASWDVHQINFYGWYRQAPGKEREKVAHISIGDQTDYADSAKGRFTISRDESKNTVYLQMNSLRPEDTALYYCRALSRIWPYDYWGQGTLVTVSSA
notes: also called A0110056A10(E1D)-35GS-T0170056G05(L11V, G26W, K30Q, L34Y, M77T, K83R, V89L, F91Y, M95L, Y99W)-A
As for B1, the binding result in assay [1] was “no binding (tested: injected between 4.1 nM and 1000 nM)”. In [2], the “% Lysis, T cell mediated MOLM-13 cell killing, cynomolgus primary T cells, E:T 10:1” value was found to be 17%. Further, the “% Lysis, T cell mediated MOLM-13 cell killing, human primary T cells, E:T 10:1” value in assay [3] was 0%.

B2: TCRαβ-CD33-CD123 multispecific ISVD construct (other)
chain: DVQLVESGGGVVQPGGSLRLSCVASGYVHKINFYGWYRQAPGKEREKVAHISIGDQTDYADSAKGRFTISRDESKNTVYLQMNSLRPEDTAAYYCRALSRIWPYDYWGQGTLVTVSSGGGGSGGGSEVQLVESGGGVVQPGGSLRLSCAASGGVFRLNSMGWFRQAPGKQRELVAIITSDGDTNYADSVKGRFTISRDQAKNTVYLQMNSLRPEDTALYYCQITYSTSSYSFPINTWGQGTLVTVSSGGGGSGGGSEVQLVESGGGVVQPGGSLRLSCAASGVIFSGNVMGWYRRQAPGKEREWVAAIAEGGSILYRDSVKGRFTISRDNAKNTVYLQMNSLRPEDTALYYCNSHPPVLPYWGQGTLVTVSSGGGGSGGGGSGGGGSGGGGSEVQLVESGGGVVQPGGSLRLSCAASGFTFRSFGMSWVRQAPGKGPEWVSSISGSGSDTLYADSVKGRFTISRDNSKNTLYLQMNSLRPEDTALYYCTIGGSLSRSSQGTLVTVSSA
notes: also called A025001562; CD123-CD33-TCR multispecific ISVD construct
For B2, in the assay with human CD123 on cells [4], the “Global IC50, impedance-based (xCELLigence) human T cell mediated killing of CHO hu CD123 cells” value stood at 0.025 nM. In addition, in the assay with human CD33 on cells [5], the “Global IC50, impedance-based (xCELLigence) human T cell mediated killing of CHO hu CD33 cells” value stood at 0.054 nM. Moreover, in the assay with cynomolgus serum albumin [6], the binding result was “binds”.

B3: TCRαβ-CD33-CD123 multispecific ISVD construct (SEQ ID NO: 460) (other)
chain: B2 chain
notes: also called A025001562; TCR-CD33-CD123
As usually defined, the IC50 is the concentration needed to halve the response being measured. Lower therefore signals greater potency. One may read the EC50 (read off the curve) as the midpoint of the concentration-response curve. One may read the Kd as the concentration at which binding is half-saturated. A low value points to tighter binding. Take B3: in assay [7], the “EC50 (M), cynomolgus T cell mediated MOLM-13 cell killing, E:T 10:1” value turned out to be 1.36e-11 M. Also, the concentration for half-maximal inhibition (IC50) in assay [8] is 729 nM; in assay [15], 218 nM. The “Global EC50 (M), flow cytometry human T cell mediated MOLM-13 cell killing, E:T 10:1, 50 uM HSA (n = 13)” value in assay [9] worked out at 1.8e-11 M. The “EC50 (read off the curve)” value in the assay with human CD123 on cells [10] is about 10 nM; with human CD33 on cells [17] it was about 70 nM. For the same molecule, the equilibrium dissociation constant (Kd) in the assay with cyCD33L-Fc is 6.9 nM; with huCD33L-Fc it was 7.6 nM; with mouse serum albumin, under 500 nM; with cynomolgus serum albumin [14] it was 7.9 nM; in the assay with human serum albumin it was 9.7 nM; in assay [16] it was 6.7 nM. In addition, the dissociation constant (Kd) amounted to 0.59 nM in the assay with huCD123-Fc and 2 nM in the assay with cyCD123-Fc. For the same molecule, in the assay with human CD33 on cells [11], the “Global IC50 (M), impedance based human T cell mediated CHO hu CD33 cell killing, E:T 15:1, 50 uM HSA (n = 4)” value came to 1.1e-10 M. In the assay with human CD123 on cells [12], the “Global IC50 (M), impedance based human T cell mediated CHO hu CD123 cell killing, E:T 15:1, 50 uM HSA (n = 7)” value was 4.4e-11 M. The “IC50 (M), impedance based cynomolgus T cell mediated CHO Flp-In cynoCD33 cell killing, E:T 15:1, 50 uM HSA” value with cynomolgus CD33 on cells came out at 6.2e-12 M. The “IC50 (M), impedance based cynomolgus T cell mediated CHO Flp-In cynoCD123 cell killing, E:T 15:1, 50 uM HSA” value in assay [13] came out at 1.4e-12 M.
